Measured values taken from the supplement of paper PMC12764529.
± gives the half width of the 95% confidence interval.

experiment: folding stability dG unfold from chymotrypsin proteolysis; higher = more stable
Outline: (§1)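 Mini-proteins designed to be under 80 residues and free of cysteine were carried in a PA-tagged cDNA display construct and digested with trypsin and with chymotrypsin. Each protease was applied at 11 threefold-diluted concentrations, alongside a no-protease condition, before sequencing. K50 came from Bayesian fitting of the sequencing counts, and unfolding free energy was obtained by comparing it with a sequence-predicted unfolded-state K50 and a shared folded-state K50, for each protease separately or for both together. Designs were retained only if their AlphaFold2 dimer inter-PAE exceeded 15.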

Sequence	folding stability dG unfold [kcal/mol]
SAGGSAGGSAGKPKTKTITLTLLVYDEETGEFYRIEARIEINEDGSITIEEKIEKLPLKPSAGGSAGGSAGG [r11_941_TrROS_Hall]	4.17 ± 0.1
SAGGSAGGSAGKPKVKKITLKNPATGETVEAEVVEVDGYLVVRVRNKDDPEKTETFVFKLSAGGSAGGSAGG [r17_73_TrROS_Hall]	2.58 ± 0.049
SAGGPPRPVRIDIDPDAGSIEIMFPNGWPYEIPIPPDSIDEITLDPNDHVIEIKMPGKEIKFDIEPVSAGGS [r16_104_TrROS]	0.757 ± 0.029
SAGEFKIDILPGDNVARITSPEGSFLAPFTATFTFDVPDIADPNKIKPKPVVFNLVIEMKLDDFFDLLSSAG [r5_234_TrMRF]	4.17 ± 0.17
KKYKVPVKEALKVAKKLIEKGYEKVKITAYLPNGEKYEIEDIKEFEEELKKKFPGIKPENLTVEIEVIPKES [r1_325_TrMRF]	4.49 ± 0.26
SAGGSAGGSMIEYPELTLEELKAKFEAEGYTVEEEPPTNVVTLTPPDGTPITVTVTPVPESLLSAGGSAGGS [r12_211_JUSTAS]	0.352 ± 0.013
SAGGSAIKVSTSPSDVSVSKVPLPNGETLTIEVSSNGETTVTKTSPTPGTPTTTTVPGASVEELLESAGGSA [r15_406_JUSTAS]	0.974 ± 0.02
SAGMLTYRFTVPAEEAEEAAEELAETLRRELGLPEEVKVEVKVVEYDPETGLVTVEAVVYRPLPEGVEPSAG [r5_537_TrMRF]	4.44 ± 0.11
SAGGSAGGSAGGGISEAAASGTPLLVTYTDESGNVTEVVVRPDSPVPLPGVVSAEVRLESAGGSAGGSAGGS [r10_700_JUSTAS]	0.167 ± 0.023
SAGGSAGGKKKKKKKKKYYTFVLKVKEKDLTPEEIKKLFPNVKIEKKDGYLVITVKVNGKEIKFSAGGSAGG [r6_738_TrROS_Hall]	2.66 ± 0.12
SAGGSAGGSAGGSSSSLTPIGSSEKLEKLPDSSLRLVTTTTYRDPVTGETSTTTTVTLTDSAGGSAGGSAGG [r7_546_JUSTAS]	0.861 ± 0.045
SAGGSAGGSAGGAPEVKRVLVLVEVEVKPGDTIELPEGARVIWDPKTRRLYVLVEVELRPSAGGSAGGSAGG [r7_584_TrROS_Hall]	3.77 ± 0.057
SAGGSAGGEYELLTFTLEFEVPPEVEHVEFEAELEDFDEILEVRARPDPETGTVRVEIVARARPSAGGSAGG [r6_712_TrMRF]	2.62 ± 0.06
SAIVIPIRVQMPPNDPDALEQAKEIADYIADMMMEEGYPFKIEVDDIEWERNPNGHWTVEIPIKIKPPPSAG [r14_48_TrROS]	1.25 ± 0.083
SAEPKRYYALVVKRPDGKWLVFYFEDVEEGRERFEEFLRKEFPEDFEVELFEVEPSEAESIEKLLEALGSAG [r14_900_TrMRF]	4.8 ± 0.091
SAGGSAGGSAGGAEKFKVLSVSWDLGKGKRYGVLEVERPDGPLLTIVVPLSYPDKLKELASAGGSAGGSAGG [r7_365_TrMRF]	1.29 ± 0.17
SAGPYVMIRIKWPGGEELSIPIPGAKITDVERDGDHITFMFDSPPAAEDIKEEIEDHFPGLKIEIQPIDSAG [r5_453_TrROS]	1.17 ± 0.2
SAGGSAGGSAGGDSMSYDPKLVEEPVVEVFDGPVLVRVTEVTLPNGKKLTTTEELPPGLESAGGSAGGSAGG [r7_846_JUSTAS]	0.796 ± 0.05
SAGGAPTVELKTETIETEDGTYLVVEAKVPTPDVTLEIKLPHGGETEVVYDPETGTATVVFRLPPDWLSAGG [r13_380_TrMRF]	2.51 ± 0.053
SAGGSAMIEIEINGKKYKIEIVKVEEKDGKVKVKIKIKDKETGKEIEIEIEMPKEELEKLLKEILSSAGGSA [r15_944_TrROS_Hall]	3.97 ± 0.28
SAGGSAGGSAGGSGPPKLRLLRRVEVVYDGLVLPPNFPLPPSAPPNLKVFVSLVTLPEGSAGGSAGGSAGGS [r4_436_TrMRF]	1.83 ± 0.25

Sequence	folding stability dG unfold [kcal/mol]
SAGGSAGGSAGDDGSDLPVVDLKVSISPFVRPLPNGEEVTVWKVLVENPGSSSRSEFYFGSAGGSAGGSAGG [r17_59_TrMRF]	0.118 ± 0.19
SAGGSAGGSAGKKYKVKVILQPKGEDKPLEIEIEVESLEEAKELLEKAFPDTRIRIDVIESAGGSAGGSAGG [r17_428_TrMRF]	2.93 ± 0.088
SAGGSAGGSKTPVFYIPPSLKDPEKAIELLEEIRKKIPPGTKIAVIAPGGGIPELKKAGLITASAGGSAGGS [r12_992_TrMRF]	0.518 ± 0.03
SAGGETKTLTIKFYDPKTGKLVAEVTITYTPEKVTVTIRFADGTTETVEMTAEELLAKLPPGAVIVPSAGGS [r16_543_TrROS_Hall]	4.46 ± 0.22
SMIKVGFNVTGLPEEAEAKAEELARELAEETGARVAGVELLEAVPHPDGGPETFNVLVTLEVPNPEAIEKSA [r9_302_TrMRF]	2.21 ± 0.051
SAGKKVKKITLTIKNKETGEYYKAEVIENENGEKYIKIINKKTGKIYIFKIKDGKIEPVKEISLKDIKPSAG [r5_619_TrROS_Hall]	3.11 ± 0.053
SAGGTLRNMPVEQIAKRLQNHGYEIKVENIRHNEDRVRIKIEVERRNKNGKPHEEVKISIEIPDPDDFSAGG [r13_566_TrROS]	0.403 ± 0.15
SAGGMKIKLKDGSEITIGSEPGRLVIVLRPPGPRSRKVIPFPVPSKEHGFVAAVNELLSLEDIEEIEPSAGG [r13_579_TrMRF]	1.34 ± 0.077
SAGMIKPEEIVEKVKAIFEEEGLENVTVKVYYDEETDEIFVEVEVELEPEEEEKAQAILDKIKKELGLESAG [r5_9_TrMRF]	2.38 ± 0.23
SAGGSAKIDIEVDPEDGYIRIKLEVQHNDEPVKATMWYPLPDDGMFIRIRFDMPNGKIEEIETIPPSAGGSA [r2_331_TrROS]	4.07 ± 0.12
SAGGSAGGSAGGKKVTITLKDANGKELKIEVKEGEEVTIEVGGKKYKLTVKDGKIELKPVSAGGSAGGSAGG [r7_510_TrROS_Hall]	4.67 ± 0.23
SAGGMKKITITIPLEELKNLTPEERKEKLKELAEEIAKKLGLPPGAKIKKIEVEEVDGKLYVKIEIESAGGS [r16_368_TrROS_Hall]	3.93 ± 0.066
SAGDPDRPVVVVIHYVDPETGEPRVEVFPADRIERIEVSPDGVLRIHLPAYGLEIDFPLDVVDHVDIASAGG [r19_416_TrMRF]	2.17 ± 0.044
SAGGKEIYVVRIEVYYPSNGKVEEKEYVIEATPEEAEELAKKIAEAFKEEAGEEVEVLRVEIKVYDLSAGGS [r16_140_TrMRF]	4.68 ± 0.072
SAGLGLEKAKKLAEKIAETLKKELEKELGIPADQIKVEAKVEKLPDGSYKITVKINLKDIPIEKVFYVDSAG [r14_226_TrMRF]	2.9 ± 0.069
SKKYFLKIEIEIEVELRPLPDEPGYVVLRARIKIKITLVKVDPETGEIVEEKEFEIEIEIELVFPPGVKPSA [r9_1234_TrROS_Hall]	6.38 ± 0.71
SAGGSAGGSAGGKWHLITFTITMEMYVMKFDPENGKWKPVDPIPMEIQITFLIPPGDPISAGGSAGGSAGGS [r10_610_TrROS]	5.08 ± 0.2
SAGGSAEPPEVTVEVLSVEPTPDGYLVVERVVTTPDGVLVYRTVFRPPDGKPVGTDWALFPNPDALSAGGSA [r15_716_TrMRF]	3.53 ± 0.041
SAGGHTIMFPVKSPEQARDEIRDFARDQGLPIEPEDITIEQHEFKDPENGKKYRFFEITIDVTLKPPSAGGS [r16_587_TrROS]	1.49 ± 0.11
SAGGSAGGSAGGELNIDDIKIDWFPADDMDDRYIFTEKIRGPNGKPTMEVTFWLPAGDLSAGGSAGGSAGGS [r10_155_TrROS]	-0.261 ± 0.62
SAEKKVLVKVKIEVFNEDGELVEELELEVEMSAEEVKKKIKEELLKLLKEKYPDKPLTIKVEVEVKELPSAG [r14_570_TrROS_Hall]	3.61 ± 0.19

experiment: folding stability dG unfold from trypsin proteolysis; higher = more stable
Outline: as §1

Sequence	folding stability dG unfold [kcal/mol]
SAGGSAGGSAGKPKTKTITLTLLVYDEETGEFYRIEARIEINEDGSITIEEKIEKLPLKPSAGGSAGGSAGG [r11_941_TrROS_Hall]	2.81 ± 0.13
SAGGSAGGSAGKPKVKKITLKNPATGETVEAEVVEVDGYLVVRVRNKDDPEKTETFVFKLSAGGSAGGSAGG [r17_73_TrROS_Hall]	2.17 ± 0.051
SAGGPPRPVRIDIDPDAGSIEIMFPNGWPYEIPIPPDSIDEITLDPNDHVIEIKMPGKEIKFDIEPVSAGGS [r16_104_TrROS]	-0.376 ± 0.12
SAGEFKIDILPGDNVARITSPEGSFLAPFTATFTFDVPDIADPNKIKPKPVVFNLVIEMKLDDFFDLLSSAG [r5_234_TrMRF]	2.49 ± 0.1
KKYKVPVKEALKVAKKLIEKGYEKVKITAYLPNGEKYEIEDIKEFEEELKKKFPGIKPENLTVEIEVIPKES [r1_325_TrMRF]	3.26 ± 0.15
SAGGSAGGSMIEYPELTLEELKAKFEAEGYTVEEEPPTNVVTLTPPDGTPITVTVTPVPESLLSAGGSAGGS [r12_211_JUSTAS]	1.21 ± 0.043
SAGGSAIKVSTSPSDVSVSKVPLPNGETLTIEVSSNGETTVTKTSPTPGTPTTTTVPGASVEELLESAGGSA [r15_406_JUSTAS]	0.331 ± 0.034
SAGMLTYRFTVPAEEAEEAAEELAETLRRELGLPEEVKVEVKVVEYDPETGLVTVEAVVYRPLPEGVEPSAG [r5_537_TrMRF]	4.21 ± 0.16
SAGGSAGGSAGGGISEAAASGTPLLVTYTDESGNVTEVVVRPDSPVPLPGVVSAEVRLESAGGSAGGSAGGS [r10_700_JUSTAS]	1.05 ± 0.03
SAGGSAGGKKKKKKKKKYYTFVLKVKEKDLTPEEIKKLFPNVKIEKKDGYLVITVKVNGKEIKFSAGGSAGG [r6_738_TrROS_Hall]	1.43 ± 0.19
SAGGSAGGSAGGSSSSLTPIGSSEKLEKLPDSSLRLVTTTTYRDPVTGETSTTTTVTLTDSAGGSAGGSAGG [r7_546_JUSTAS]	-0.46 ± 0.091
SAGGSAGGSAGGAPEVKRVLVLVEVEVKPGDTIELPEGARVIWDPKTRRLYVLVEVELRPSAGGSAGGSAGG [r7_584_TrROS_Hall]	2.73 ± 0.12
SAGGSAGGEYELLTFTLEFEVPPEVEHVEFEAELEDFDEILEVRARPDPETGTVRVEIVARARPSAGGSAGG [r6_712_TrMRF]	1.46 ± 0.044
SAIVIPIRVQMPPNDPDALEQAKEIADYIADMMMEEGYPFKIEVDDIEWERNPNGHWTVEIPIKIKPPPSAG [r14_48_TrROS]	1.45 ± 0.18
SAEPKRYYALVVKRPDGKWLVFYFEDVEEGRERFEEFLRKEFPEDFEVELFEVEPSEAESIEKLLEALGSAG [r14_900_TrMRF]	3.07 ± 0.14
SAGGSAGGSAGGAEKFKVLSVSWDLGKGKRYGVLEVERPDGPLLTIVVPLSYPDKLKELASAGGSAGGSAGG [r7_365_TrMRF]	0.395 ± 0.14
SAGPYVMIRIKWPGGEELSIPIPGAKITDVERDGDHITFMFDSPPAAEDIKEEIEDHFPGLKIEIQPIDSAG [r5_453_TrROS]	0.288 ± 0.16
SAGGSAGGSAGGDSMSYDPKLVEEPVVEVFDGPVLVRVTEVTLPNGKKLTTTEELPPGLESAGGSAGGSAGG [r7_846_JUSTAS]	-0.436 ± 0.17
SAGGAPTVELKTETIETEDGTYLVVEAKVPTPDVTLEIKLPHGGETEVVYDPETGTATVVFRLPPDWLSAGG [r13_380_TrMRF]	1.72 ± 0.088
SAGGSAMIEIEINGKKYKIEIVKVEEKDGKVKVKIKIKDKETGKEIEIEIEMPKEELEKLLKEILSSAGGSA [r15_944_TrROS_Hall]	2.79 ± 0.27
SAGGSAGGSAGGSGPPKLRLLRRVEVVYDGLVLPPNFPLPPSAPPNLKVFVSLVTLPEGSAGGSAGGSAGGS [r4_436_TrMRF]	3.11 ± 0.091
